Data taken from article PMC8866402, “Fortilin interacts with TGF-β1 and prevents TGF-β receptor activation” (Communications Biology, 2022).

Assays:
[1] = target: T1, recombinant human Flag-tagged p53 (human, UniProt P04637 1-393); test: co-IP; in vitro mixture of recombinant Flag-fortilin, TGF-β1, Flag-p53 and His6-NQO2 in Buffer A (10 mM Tris pH 7.4, 100 mM NaCl, 0.01% NP-40); rabbit anti-fortilin mAb or rabbit IgG, 2 h room temperature; anti-rabbit IgG Dynabeads; four washes in Buffer B (0.3% NP-40); western blot; settings: both partners purified
T1 construct: p53, human; Positive control of the co-IP; also called rh-p53; source: bought: OriGene (Catalog #: TP300003)
T1 sequence (P04637 whole entry): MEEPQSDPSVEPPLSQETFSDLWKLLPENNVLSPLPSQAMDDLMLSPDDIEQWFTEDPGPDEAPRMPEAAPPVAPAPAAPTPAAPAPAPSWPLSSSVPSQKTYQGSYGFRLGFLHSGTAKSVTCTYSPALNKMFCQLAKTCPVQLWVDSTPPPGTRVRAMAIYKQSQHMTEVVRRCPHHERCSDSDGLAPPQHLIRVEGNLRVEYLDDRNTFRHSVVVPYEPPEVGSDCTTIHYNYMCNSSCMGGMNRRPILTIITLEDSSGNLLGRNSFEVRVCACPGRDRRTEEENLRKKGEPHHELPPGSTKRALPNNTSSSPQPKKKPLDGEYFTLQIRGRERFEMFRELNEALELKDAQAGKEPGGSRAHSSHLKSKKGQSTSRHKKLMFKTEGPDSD

[2] = target: T2, recombinant human latency-associated-peptide (LAP)-TGF-β1 protein (human, UniProt P01137 30-278); test: BLI; BLItz; biotinylated rh-fortilin immobilised on streptavidin biosensors (30 μg/mL, PBS); various concentrations of analyte, 180 s association, 180 s dissociation in PBS; settings: both partners purified
T2 construct: TGF-β1 precursor, human; 'latency-associated-peptide (LAP)-TGF-β1'; As far as I recall, R&D Systems 246-LP is the LAP of TGF-β1 alone (about Leu30-Arg278 of the precursor), not the latent complex; also called LAP-TGF-β1 molecule; source: bought: R&D Systems (Catalog #: 246-LP-025/CF)
T2 sequence (P01137 30-278): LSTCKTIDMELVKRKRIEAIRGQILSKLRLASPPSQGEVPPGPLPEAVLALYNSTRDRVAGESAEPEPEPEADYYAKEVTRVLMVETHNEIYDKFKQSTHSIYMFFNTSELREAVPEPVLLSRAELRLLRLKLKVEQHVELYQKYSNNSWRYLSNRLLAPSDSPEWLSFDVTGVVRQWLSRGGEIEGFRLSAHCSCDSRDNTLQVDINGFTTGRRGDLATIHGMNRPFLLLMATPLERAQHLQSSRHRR

B1: recombinant human Flag-tagged fortilin (natural protein)
chain: MIIYRDLISHDEMFSDIYKIREIADGLCLEVEGKMVSRTEGNIDDSLIGGNASAEGPEGEGTESTVITGVDIVMNHHLQETSFTKEAYKKYIKDYMKSIKGKLEEQRPERVKPFMTGAAEQIKHILANFKNYQFFIGENMNPDGMVALLDYREDGVTPYMIFFKDGLEMEKC
notes: fortilin, human; the abstract calls fortilin a 172-amino acid protein; also called rh-fortilin; source: bought: OriGene (Catalog #: TP301664)
Question: Does B1 bind [1]?
Answer: Result: binds

B2: biotinylated rh-fortilin (natural protein, human)
chain: MIIYRDLISHDEMFSDIYKIREIADGLCLEVEGKMVSRTEGNIDDSLIGGNASAEGPEGEGTESTVITGVDIVMNHHLQETSFTKEAYKKYIKDYMKSIKGKLEEQRPERVKPFMTGAAEQIKHILANFKNYQFFIGENMNPDGMVALLDYREDGVTPYMIFFKDGLEMEKC
modifications: biotin (NHS-PEG4-biotin)
notes: fortilin, human; The BLI methods say only 'rh-fortilin'; also called biotinylated fortilin; source: rh-fortilin biotinylated with NHS-PEG4-biotin and desalted
Question: B2 was tested. Which Kd [2] did it give?
Answer: Its Kd is 930 nM.
